T1: Terbium (Tb) labeled-SNAP tagged ROBO2 expressed on HEK293 cells (Homo sapiens (Human), UniProt Q9HCK4 22-1378, terbium label on the SNAP tag)
T1 construct: also called Tb-labeled ROBO2 cells; ROBO2 expressing cells; not shown: SNAP tag
T1 sequence: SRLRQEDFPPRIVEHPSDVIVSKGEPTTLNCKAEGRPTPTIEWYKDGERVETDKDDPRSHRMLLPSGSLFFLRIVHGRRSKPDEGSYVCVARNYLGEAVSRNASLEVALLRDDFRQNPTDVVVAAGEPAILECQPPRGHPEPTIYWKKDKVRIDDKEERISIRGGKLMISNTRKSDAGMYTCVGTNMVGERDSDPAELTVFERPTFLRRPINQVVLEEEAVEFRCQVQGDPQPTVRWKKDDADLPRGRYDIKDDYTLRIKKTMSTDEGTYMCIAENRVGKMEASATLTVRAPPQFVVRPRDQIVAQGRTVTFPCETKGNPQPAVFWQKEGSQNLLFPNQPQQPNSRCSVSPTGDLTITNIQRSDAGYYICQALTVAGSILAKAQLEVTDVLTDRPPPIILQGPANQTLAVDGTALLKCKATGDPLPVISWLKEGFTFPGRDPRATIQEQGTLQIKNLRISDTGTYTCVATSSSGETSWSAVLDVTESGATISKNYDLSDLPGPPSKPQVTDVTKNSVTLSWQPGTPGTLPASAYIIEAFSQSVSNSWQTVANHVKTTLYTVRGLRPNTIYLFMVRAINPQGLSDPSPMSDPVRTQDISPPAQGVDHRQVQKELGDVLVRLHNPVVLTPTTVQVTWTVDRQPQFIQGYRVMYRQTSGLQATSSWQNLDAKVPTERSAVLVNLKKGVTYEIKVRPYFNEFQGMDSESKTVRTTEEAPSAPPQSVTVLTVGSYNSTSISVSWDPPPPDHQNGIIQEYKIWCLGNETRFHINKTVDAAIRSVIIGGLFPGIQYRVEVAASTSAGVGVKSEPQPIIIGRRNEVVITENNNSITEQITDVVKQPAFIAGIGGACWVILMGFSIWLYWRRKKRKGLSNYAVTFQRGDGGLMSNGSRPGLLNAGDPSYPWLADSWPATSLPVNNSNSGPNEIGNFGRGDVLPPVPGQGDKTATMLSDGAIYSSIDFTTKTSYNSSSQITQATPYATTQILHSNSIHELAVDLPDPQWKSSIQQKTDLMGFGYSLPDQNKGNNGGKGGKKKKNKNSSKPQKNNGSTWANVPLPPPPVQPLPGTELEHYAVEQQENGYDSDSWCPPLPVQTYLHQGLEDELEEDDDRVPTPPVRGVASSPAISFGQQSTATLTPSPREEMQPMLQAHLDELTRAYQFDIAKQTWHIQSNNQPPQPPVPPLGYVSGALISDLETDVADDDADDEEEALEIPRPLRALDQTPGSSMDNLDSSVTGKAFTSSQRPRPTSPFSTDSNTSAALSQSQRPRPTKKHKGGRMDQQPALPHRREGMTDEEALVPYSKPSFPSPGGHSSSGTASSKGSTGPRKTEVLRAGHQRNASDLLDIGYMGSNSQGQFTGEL


Molecular target: T1, Terbium (Tb) labeled-SNAP tagged ROBO2 …
Assay: HTRF competition, competitor d2-SLIT2-N, ROBO2 HEK293 cells
How it was run: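 HEK293 cells expressing Tb-labeled SNAP-ROBO2 were incubated 1 hour with 5 nM d2-SLIT2-N plus antibody, read as the 665/620 nm HTRF ratio. Controls were no antibody (maximal) and cells alone (minimal). Screening used 1 nM antibody; IC₅₀ came from 11-point, 5-fold dilutions starting at 1500 nM.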

Binder | IC50 [pM]
93H2 (antibody, human IgG1, kappa, V domains shown, also called parental 93H2; 93H2 mAb) VH: EVQLVQSGAEVKKPGASVKVSCKASGYTFTGYYMHWVRQAPGQGLEWMGWINPNSGATNFPQKFQGRVTMTRDTSITTAYMDLSRLRSDDTAVYYCARESGDDAFDIWGQGTMVTVSS VL: not shown | 4220
Abcs55 (antibody, human IgG1, kappa, V domains shown, chain-shuffled IgG) VH: EVQLVQSGAEVKKPGASVKVSCKASGYTFTGYYMHWVRQAPGQGLEWMGWINPKDGDTEFPQKFQGRVTMTRDTSITTAYMDLSRLRSDDTAVYYCARESGDDAFDIWGQGTMVTVSS VL: DIVMTQSPSSLSASVGDRVTITCRASQSISSYLNWYQQKPGKAPKLLIYAASSLQYGVPSRFSGSGSGTDFTLTISSLQPEDFATYYCQQSYSTSFGGGTKVEIKR | 57
CTIR2-16 (antibody, human IgG1, kappa, V domains shown, CDR-shuffled IgG) VH: EVQLVQSGAEVKKPGASVKVSCKASGYTFRGYAMHWVRQAPGQGLEWMGWIDPRTGLTKFPQKFQGRVTMTRDTSITTAYMDLSRLRSDDTAVYYCARESGDDAFDIWGQGTMVTVSS VL: DIVMTQSPSSLSASVGDRVTITCRASQKISSYLNWYQQKPGKAPKLLIYAASSLQYGVPSRFSGSGSGTDFTLTISSLQPEDFATYYCQQSVGLFFGGGTKVEIKR | 56
CTIR2-14 (antibody, human IgG1, kappa, V domains shown, CDR-shuffled IgG) VH: EVQLVQSGAEVKKPGASVKVSCKASGYTFRGYAMHWVRQAPGQGLEWMGWIDPRTGLTKFPQKFQGRVTMTRDTSITTAYMDLSRLRSDDTAVYYCARESGDDAFDIWGQGTMVTVSS VL: DIVMTQSPSSLSASVGDRVTITCRASQKISSYLNWYQQKPGKAPKLLIYAASSLQYGVPSRFSGSGSGTDFTLTISSLQPEDFATYYCQQSLELGFGGGTKVEIKR | 37
CTIR2-15 (antibody, human IgG1, kappa, V domains shown, CDR-shuffled IgG) VH: EVQLVQSGAEVKKPGASVKVSCKASGYTFRGYAMHWVRQAPGQGLEWMGWIDPRTGLTKFPQKFQGRVTMTRDTSITTAYMDLSRLRSDDTAVYYCARESGDDAFDIWGQGTMVTVSS VL: DIVMTQSPSSLSASVGDRVTITCRASQKISSYLNWYQQKPGKAPKLLIYAASSLQYGVPSRFSGSGSGTDFTLTISSLQPEDFATYYCQQSVGLSFGGGTKVEIKR | 50
Abcs25 (antibody, human IgG1, kappa, V domains shown, chain-shuffled IgG) VH: EVQLVQSGAEVKKPGASVKVSCKASGYTFTGYYMHWVRQAPGQGLEWMGWINPKDGDTEFPQKFQGRVTMTRDTSITTAYMDLSRLRSDDTAVYYCARESGDDAFDIWGQGTMVTVSS VL: DIVMTQSPSSLSASVGDRVTITCRASQSISSYLNWYQQKPGKAPKLLIYAASSLQSGVPSRFSGSGSGTDFTLTISSLQPEDFATYYCQQSVGLSFGGGTKVEIKR | 42
Abcs40 (antibody, human IgG1, kappa, V domains shown, chain-shuffled IgG) VH: EVQLVQSGAEVKKPGASVKVSCKASGYTFTGYYMHWVRQAPGQGLEWMGWINPKDGDTEFPQKFQGRVTMTRDTSITTAYMDLSRLRSDDTAVYYCARESGDDAFDIWGQGTMVTVSS VL: DIVMTQSPSSLSASVGDRVTITCRASQSISSYLNWYQQKPGKAPKLLIYAASSLQSGVPSRFSGSGSGTDFTLTISSLQPEDFATYYCQQSVGLFFGGGTKVEIKR | 48
Abcs35 (antibody, human IgG1, kappa, fully human IgG1; VH of Ab96 with VL of Ab123) heavy: EVQLVQSGAEVKKPGASVKVSCKASGYTFTGYYMHWVRQAPGQGLEWMGWINPKNGDTEFPQKFQGRVTMTRDTSITTAYMDLSRLRSDDTAVYYCARESGDDAFDIWGQGTMVTVSSASTKGPSVFPLAPSSKSTSGGTAALGCLVKDYFPEPVTVSWNSGALTSGVHTFPAVLQSSGLYSLSSVVTVPSSSLGTQTYICNVNHKPSNTKVDKKVEPKSCDKTHTCPPCPAPEAAGAPSVFLFPPKPKDTLMISRTPEVTCVVVDVSHEDPEVKFNWYVDGVEVHNAKTKPREEQYNSTYRVVSVLTVLHQDWLNGKEYKCKVSNKALPAPIEKTISKAKGQPREPQVYTLPPSREEMTKNQVSLTCLVKGFYPSDIAVEWESNGQPENNYKTTPPVLDSDGSFFLYSKLTVDKSRWQQGNVFSCSVMHEALHNHYTQKSLSLSPGK light: DIVMTQSPSSLSASVGDRVTITCRASQSISSYLNWYQQKPGKAPKLLIYAASSLQSGVPSRFSGSGSGTDFTLTISSLQPEDFATYYCQQSVGLFFGGGTKVEIKRTVAAPSVFIFPPSDEQLKSGTASVVCLLNNFYPREAKVQWKVDNALQSGNSQESVTEQDSKDSTYSLSSTLTLSKADYEKHKVYACEVTHQGLSSPVTKSFNRGEC | 41
Abcs20 (antibody, human IgG1, kappa, V domains shown, chain-shuffled IgG) VH: EVQLVQSGAEVKKPGASVKVSCKASGYTFTGYYMHWVRQAPGQGLEWMGWINPKNGDTEFPQKFQGRVTMTRDTSITTAYMDLSRLRSDDTAVYYCARESGDDAFDIWGQGTMVTVSS VL: DIVMTQSPSSLSASVGDRVTITCRASQSISSYLNWYQQKPGKAPKLLIYAASSLQSGVPSRFSGSGSGTDFTLTISSLQPEDFATYYCQQSVGLSFGGGTKVEIKR | 40
